According to the supplement of paper PMC7877785:
± gives the uncertainty stated by the source.

Experiment: self-splicing fitness, log relative to wild type (ln ratio); higher = more splicing; Tetrahymena group I intron in knt gene, E. coli kanamycin selection, DiMSum; sequences stand for … in CUCUCU…GGAGGGAAAAGUUAUCAGGCAUGCACCUGGUAGCUAGUCUUUAAACCAAUAGAUUGCAUCGGUUUAAAAGGCAAGACCGUCAAAUUGCGGGAAAGGGGUCAACAGCCGUUCAGUACCAAGUCUCAGGGGAAACUUUGAGAUGGCCUUGCAAAGGGUAUGGUAAUAAGCUGACGGACAUGGUCCUAACCACGCAGCCAAGUCCUAAGUCAACAGAUCUUCUGUUGAUAUGGAUGCAGUUCACAGACUAAAUGUCGGUCGGGGAAGAUGUAUUCUUCUCAUAAGAUAUAGUCGGACCUCUCCUUAAUGGGAGCUAGCGGAUGAAGUGAUGCAACACUGGAGCCGCUGGGAACUAAUUUGUAUGCGAAAGUAUAUUGAUUAGUUUUGGAGUACUCGUGGUCG
How it was run: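 DiMSum derived fitness as the error-weighted combination of fold changes across replicates, kanamycin versus no kanamycin, normalised to wild type. E. coli BL21(DE3) held the library, which randomised all eight P1ex-region intron nucleotides within the knt kanamycin-resistance gene on pET-22b(+). Six replicate transformations grew overnight at 37°C or 30°C on LB agar with or without 25 μg/mL kanamycin, also containing 100 μg/mL carbenicillin, 50 μM IPTG and 0.2% rhamnose, and pooled colonies were amplicon-sequenced on an Illumina HiSeq 2500.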

Row | Sequence | self-splicing fitness (ln) (30 °C) | self-splicing fitness (ln) (37 °C)
1 | AGGUAGCAAUAUUACGGUUG | -3.675 ± 0.026 | -2.4 ± 0.039
2 | AGGUAGCAAUAUUACGUACC | -1.99 ± 0.028 | -1.14 ± 0.042
3 | AGGUAGCAAUAUUACGUAUC | -3.25 ± 0.025 | -2.07 ± 0.038
4 | AGGUAGCAAUAUUACGUCGU | -1.761 ± 0.015 | -0.841 ± 0.034
5 | AGGUAGCAAUAUUACGUCUC | -3.938 ± 0.036 | -2.38 ± 0.047
6 | AGGUAGCAAUAUUACGUCUU | -0.915 ± 0.014 | -0.371 ± 0.033
7 | AGGUAGCAAUAUUACGUGCA | -0.829 ± 0.014 | -0.279 ± 0.033
8 | AGUAAGCAAUAUUACGAAAU | -3.49 ± 0.21 | -2.18 ± 0.17
9 | AGUAAGCAAUAUUACGACCA | -0.203 ± 0.12 | 0.184 ± 0.21
10 | AGUAAGCAAUAUUACGACUA | -0.283 ± 0.13 | -0.43 ± 0.13
11 | AGUAAGCAAUAUUACGACUU | -0.394 ± 0.068 | -0.58 ± 0.097
12 | AGUAAGCAAUAUUACGAUCA | 0.197 ± 0.16 | -0.44 ± 0.15
13 | AGUAAGCAAUAUUACGCAAC |  | -2.61 ± 0.38
14 | AGUAAGCAAUAUUACGCAAG | -2.99 ± 0.16 | -1.88 ± 0.19
15 | AGUAAGCAAUAUUACGCACG | -1.43 ± 0.1 | -0.219 ± 0.12
16 | AGUAAGCAAUAUUACGCCGC | -1.03 ± 0.25 | -2.95 ± 0.48
17 | AGUAAGCAAUAUUACGCCGU | -0.289 ± 0.17 | -2.06 ± 0.31
18 | AGUAAGCAAUAUUACGCCUG | -2.19 ± 0.12 | -1.15 ± 0.12
19 | AGUAAGCAAUAUUACGCGGG | -2.82 ± 0.29 | -2.13 ± 0.29
20 | AGUAAGCAAUAUUACGCGUC | -3.37 ± 0.19 | -2.2 ± 0.17
21 | AGUAAGCAAUAUUACGCUCA | -0.405 ± 0.12 | -0.595 ± 0.11
22 | AGUAAGCAAUAUUACGCUCG | -0.783 ± 0.17 | -0.584 ± 0.21
23 | AGUAAGCAAUAUUACGCUCU | -1.96 ± 0.2 | -1.59 ± 0.27
24 | AGUAAGCAAUAUUACGCUGC | -2.97 ± 0.29 | 
25 | AGUAAGCAAUAUUACGCUGU | -2.78 ± 0.22 | -1.88 ± 0.3

Row | Sequence | self-splicing fitness (ln) (30 °C) | self-splicing fitness (ln) (37 °C)
26 | AGUAAGCAAUAUUACGGAAC | -1.82 ± 0.25 | -2.6 ± 0.27
27 | AGUAAGCAAUAUUACGGACA | -0.314 ± 0.091 | -0.393 ± 0.11
28 | AGUAAGCAAUAUUACGGCAG | -2.1 ± 0.16 | -1.53 ± 0.2
29 | AGUAAGCAAUAUUACGGCCG | -0.888 ± 0.11 | -0.63 ± 0.18
30 | AGUAAGCAAUAUUACGGGAU | -3.01 ± 0.25 | -1.12 ± 0.15
31 | AGUAAGCAAUAUUACGGGGG | -3.08 ± 0.22 | -2.87 ± 0.29
32 | AGUAAGCAAUAUUACGGUGG | -3.68 ± 0.2 | -1.66 ± 0.16
33 | AGUAAGCAAUAUUACGUAGC | -4.37 ± 0.42 | -3.1 ± 0.47
34 | AGUAAGCAAUAUUACGUCCC | -0.303 ± 0.15 | 0.019 ± 0.18
35 | AGUAAGCAAUAUUACGUCGG | -3.61 ± 0.35 | -1.8 ± 0.29
36 | AGUCAGCAAUAUUACGAACC | -0.519 ± 0.15 | -0.0581 ± 0.16
37 | AGUCAGCAAUAUUACGAACG | 0.155 ± 0.087 | 0.717 ± 0.15
38 | AGUCAGCAAUAUUACGAAUC | -0.727 ± 0.13 | -0.18 ± 0.19
39 | AGUCAGCAAUAUUACGACCU | -0.358 ± 0.081 | 0.103 ± 0.11
40 | AGUCAGCAAUAUUACGAUAA | -0.337 ± 0.087 | -0.697 ± 0.1
41 | AGUCAGCAAUAUUACGAUAC | -1.69 ± 0.12 | -0.336 ± 0.11
42 | AGUCAGCAAUAUUACGAUCG | -0.601 ± 0.091 | 0.358 ± 0.14
43 | AGUCAGCAAUAUUACGAUUU | -0.399 ± 0.064 | -0.286 ± 0.11
44 | AGUCAGCAAUAUUACGCAAU | -0.997 ± 0.075 | 0.245 ± 0.096
45 | AGUCAGCAAUAUUACGCACU | -2.19 ± 0.12 | -1.42 ± 0.13
46 | AGUCAGCAAUAUUACGCAGC | -2.28 ± 0.15 | -1.22 ± 0.16
47 | AGUCAGCAAUAUUACGCCAG | -3.55 ± 0.34 | -2.47 ± 0.31
48 | AGUCAGCAAUAUUACGCCCA | -1.19 ± 0.13 | 0.479 ± 0.18
49 | AGUCAGCAAUAUUACGCCGA | -1.92 ± 0.25 | -1.92 ± 0.3
50 | AGUCAGCAAUAUUACGCGUG | -1.28 ± 0.097 | -0.66 ± 0.11

Row | Sequence | self-splicing fitness (ln) (30 °C) | self-splicing fitness (ln) (37 °C)
51 | AGUCAGCAAUAUUACGCGUU | 0.159 ± 0.077 | 0.0714 ± 0.085
52 | AGUCAGCAAUAUUACGCUAG | -3.33 ± 0.18 | -2.64 ± 0.23
53 | AGUCAGCAAUAUUACGCUUG | -2.79 ± 0.15 | -0.514 ± 0.15
54 | AGUCAGCAAUAUUACGGCAG | -0.629 ± 0.11 | -0.145 ± 0.15
55 | AGUCAGCAAUAUUACGGCUC | -3.84 ± 0.43 | -1.54 ± 0.45
56 | AGUCAGCAAUAUUACGGGAC | -2.45 ± 0.18 | -2.16 ± 0.24
57 | AGUCAGCAAUAUUACGGGCA | -0.79 ± 0.095 | -0.281 ± 0.11
58 | AGUCAGCAAUAUUACGGGCU | -2.43 ± 0.19 | -3.12 ± 0.43
59 | AGUCAGCAAUAUUACGGGUU | -0.799 ± 0.077 | -0.628 ± 0.086
60 | AGUCAGCAAUAUUACGGUCA | -0.726 ± 0.11 | -0.323 ± 0.1
61 | AGUCAGCAAUAUUACGUAAC | -1.88 ± 0.099 | -1.37 ± 0.11
62 | AGUCAGCAAUAUUACGUAAU | -1.16 ± 0.062 | -0.387 ± 0.088
63 | AGUCAGCAAUAUUACGUCAA | -2.24 ± 0.12 | -1.09 ± 0.1
64 | AGUCAGCAAUAUUACGUCAU | -0.181 ± 0.072 | -0.133 ± 0.09
65 | AGUCAGCAAUAUUACGUCGC | -1.65 ± 0.13 | -1.14 ± 0.19
66 | AGUCAGCAAUAUUACGUCGG | -0.874 ± 0.086 | -1.23 ± 0.11
67 | AGUCAGCAAUAUUACGUGUG | -2.26 ± 0.099 | -1.57 ± 0.11
68 | AGUGAGCAAUAUUACGAAAU |  | -2.07 ± 0.39
69 | AGUGAGCAAUAUUACGAAGC | -4.89 ± 0.46 | -1.55 ± 0.33
70 | AGUGAGCAAUAUUACGAGAU | -3.9 ± 0.23 | -1.49 ± 0.19
71 | AGUGAGCAAUAUUACGAGGU | -3.63 ± 0.31 | 
72 | AGUGAGCAAUAUUACGAUCC | -0.375 ± 0.25 | -0.193 ± 0.22
73 | AGUGAGCAAUAUUACGAUCU | -1.7 ± 0.14 | -1.13 ± 0.15
74 | AGUGAGCAAUAUUACGAUUG | -3.59 ± 0.42 | -2.77 ± 0.38
75 | AGUGAGCAAUAUUACGCAUC | -3.32 ± 0.28 | -0.505 ± 0.26

Row | Sequence | self-splicing fitness (ln) (30 °C) | self-splicing fitness (ln) (37 °C)
76 | AGUGAGCAAUAUUACGCAUG | -3.22 ± 0.29 | -3.25 ± 0.43
77 | AGUGAGCAAUAUUACGCCGG | -2.67 ± 0.26 | -1.81 ± 0.38
78 | AGUGAGCAAUAUUACGCGAC | -1.74 ± 0.32 | -1.46 ± 0.31
79 | AGUGAGCAAUAUUACGCUCC | -1.69 ± 0.45 | 
80 | AGUGAGCAAUAUUACGGACC | -0.918 ± 0.22 | -0.539 ± 0.33
81 | AGUGAGCAAUAUUACGGAUA | -2.82 ± 0.28 | -0.678 ± 0.35
82 | AGUGAGCAAUAUUACGGAUC | -2.42 ± 0.25 | -1.25 ± 0.34
83 | AGUGAGCAAUAUUACGGAUG | -3.2 ± 0.24 | -3.06 ± 0.3
84 | AGUGAGCAAUAUUACGGCGC | -0.869 ± 0.35 | -0.599 ± 0.2
85 | AGUGAGCAAUAUUACGGCUG | -2.19 ± 0.12 | -0.36 ± 0.16
86 | AGUGAGCAAUAUUACGGGAA | -2.94 ± 0.29 | 
87 | AGUGAGCAAUAUUACGGGAU | -3.44 ± 0.26 | -1.7 ± 0.29
88 | AGUGAGCAAUAUUACGGGCU | -4.57 ± 0.39 | -2.72 ± 0.3
89 | AGUGAGCAAUAUUACGUAAG | -3.1 ± 0.43 | -2.48 ± 0.41
90 | AGUGAGCAAUAUUACGUAGG | -4.29 ± 0.46 | 
91 | AGUGAGCAAUAUUACGUAGU | -4.14 ± 0.26 | -2.82 ± 0.26
92 | AGUGAGCAAUAUUACGUAUG |  | -2.56 ± 0.32
93 | AGUGAGCAAUAUUACGUCAA | -0.971 ± 0.2 | -2.79 ± 0.36
94 | AGUGAGCAAUAUUACGUCAU | -1.29 ± 0.14 | -2.29 ± 0.22
95 | AGUGAGCAAUAUUACGUCCU | 0.0407 ± 0.17 | 0.233 ± 0.18
96 | AGUGAGCAAUAUUACGUGGC |  | -1.94 ± 0.33
97 | AGUGAGCAAUAUUACGUUCA | -3.1 ± 0.38 | -2.41 ± 0.37
98 | AGUGAGCAAUAUUACGUUCU | -1.78 ± 0.15 | -1.57 ± 0.14
